Consider one substance from patent US20240343821A1, “OFATUMUMAB FOR TREATING PEDIATRIC MS” (NOVARTIS AG, priority 2021, published 2024).

Format in all cases: in vivo, human
A short description of series [1]: Ofatumumab half-life at steady state after subcutaneous administration. Particulars: following subcutaneous administration of repeated 20 mg doses. The procedure: The half-life of ofatumumab at steady state can be approximately 16 days, in particular following subcutaneous administration of repeated 20 mg doses.
The subject of another series is B cells. The series is described as follows: B cell depletion under the claimed ofatumumab dosage regimen. Particulars: loading dose weeks 0, 1, 2; maintenance from week 8 every six weeks. The source says:
This has been completely surprising because there are significant differences between adult patients and pediatric patients. These differences relate, inter alia, to physiology, metabolism, and body weight. In this context, it is also noted that there is a higher baseline B cell count in children compared to adults and, therefore, it would not have been expected that the claimed dosage regimen is able to consistently deplete B cells in patients as defined in the claims.

Series [2] can be described thus: Immunoglobulin (IgG) levels under long-term ofatumumab therapy. The settings on record: in the long run, long-term treatment. The source says:
Generally, side effects and adverse events associated with B cell-depleting therapies such as ocrelizumab therapy are reported to be associated with a reduction of immunoglobulins (e.g. IgG).

Series [3] is described as follows: Multiple Sclerosis Impact Scale (MSIS-29) under ofatumumab. The settings on record: administration of ofatumumab. As to the method: The MSIS-29 version 2 is a 29-item, self-administered questionnaire that includes 2 domains: physical and psychological. Responses were captured on a 4-point ordinal scale ranging from 1 (not at all) to 4 (extremely), with higher scores reflecting greater impact on day-to-day life. The MSIS-29 takes about 5 minutes to complete and the questions are designed to determine the patient's views about the impact of MS on their day-to-day life during the past 2 weeks. Reference is made to Hobart J and Cano S (2009), “Improving the evaluation of therapeutic interventions in multiple sclerosis: the role of new psychometric methods”, Health Technol Assess; 13(12):iii, ix-x, […] to Hobart J, Lamping D, Fitzpatrick R, et al (2001), “The Multiple Sclerosis Impact Scale (MSIS-29): a new patient-based outcome measure”, Brain; 124(Pt 5):962-73.

Bounds are passed on as bounds.

With Ofatumumab, the “half-life at steady state” value in series [1] is given as “approximately 16 days”. Further, in the series on B cells, the “depletion of B cells (B cell count threshold)” value is reported as below 8 cells per microliter. The “reduction of immunoglobulins (e.g. IgG)” value in series [2] was “does not cause reduction of immunoglobulins”. Moreover, the “MS impact scale MSIS-29” value in series [3] was “advantageous reduction”.
